According to paper PMC5364132, “Anti-Biofilm Activity of a Self-Aggregating Peptide against Streptococcus mutans” (Frontiers in Microbiology, 2017):

Biological target: the molecule itself
Assay: FTIR spectroscopy; peptides at 1 and 0.1 mg/ml in PBS, 8 μl dried as thin films on the ATR surface; spectra 1800-1500 cm^-1; peaks at 1621 and 1695 cm^-1 read as antiparallel β-sheet assembly

B1: synthetic peptide P1 (peptide)
peptide: PARKARAATAATAATAATAATAAT
notes: 24-amino acid synthetic peptide designed with repeated motifs of the Ixodes tick antifreeze glycoprotein (IAFGP); Not the streptococcal adhesin P1 (AgI/II, PAc); also called antivirulence peptide P1; source: synthetic peptide (Genscript, >80% purity)
- binding result: binds
